In the nanobody polyreactivity screen of Harvey et al. (2022):

Assay: yeast display, Sf9 membrane polyspecificity reagent, FACS + sequencing; frameworks hold sequencing errors
Outline: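 After 36–48 hours of galactose induction, yeast (Saccharomyces cerevisiae BJ5465) displaying a synthetic nanobody library were stained at 4 °C for 1 hour with 10% biotinylated, detergent-solubilized Sf9 membrane reagent. Streptavidin microbeads enriched the stained cells before FACS sorting into low and high (top ~1%) gates on anti-HA and streptavidin fluorescence. Each clone's polyreactivity label reflects its gate of origin.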

In the case of “QVQLVESVLGLVQAGGSLRFSCAASGSTIVRYAMVWYRPAPGKERELVAAISSSGATTYYADSVKGRFTISRDNAKNTVYLQMNSLKPEYTAVYYCDKYCRATRGLDNYWGQGTQVTVSS”, the “polyreactivity (PSR sort gate)” value was “high polyreactivity”.

In the case of “QVQLVESVRGLVQAGGSLPLSCAASGIIISSYAIGWYRQAPGKESEMVADIRSGGSTNYADSVKGRFTISRDNAKNNVYLQMNSLKPEDTAVYYCIADTFQWWDIADVYVIVKYGYWGQGTQVTVSS”, the “polyreactivity (PSR sort gate)” value was “low polyreactivity”.

For “QVQLVESVRGLVQAGGSLRLSCDASAFIFRSYAMGWNRQAPGKERELVAVISRRGVNTHYADSVKGRFSISRDNAKNTVYLQINSLKPEDTAVYYCAAELSYRGYPYDYWGQGTQVTVSS”, the “polyreactivity (PSR sort gate)” value was “high polyreactivity”.

For “QVQLVESVVGLVQEGGSLRFSCAASASTLDSNPIGWYRQAPGKEREVVAAITSGGSTYYADSVKGRFTISRDNAKNTVYLQMNSLKPEDSAVYYCATAWYLGRYRSLGYWGQGTQVTVSS”, the “polyreactivity (PSR sort gate)” value was “high polyreactivity”.

In the case of “QVQLVESVVGLVQPRGSLRLSSASSGRTFRQYAMGRYRQAPGKERDLVAAIRTNGGRTYYADSVKGRFTISRDNAKNTVYLQMNSQKPEDTAVYYCAVYAFVQGVLFDYWGQGTQVTVSS”, the “polyreactivity (PSR sort gate)” value was “high polyreactivity”.

In the case of “QVQLVESVVVLVQAGGSLRLSCAASGFTIPFYAMGWYRQARGKERDLVAAISQSGVRTYYADSVKGRFTISRDNAKYTVYLQMKSLKPEDTAVYFCNVAYRGALDIHSYWYPSEYWGQGTQVTVSS”, the “polyreactivity (PSR sort gate)” value was “high polyreactivity”.

With “QVQLVESWGALVQAGGSLRLSCAASGSTFGSNAMGWYRQAPGKERELVAAITYSGGRTYYADSVKGRFTISRDNAKNTVYLQMNSLTPEDTAVYYCAATFGFFYYQYDYWGQGTQVTVSS” the “polyreactivity (PSR sort gate)” value was “low polyreactivity”.

With “QVQLVESWGALVQAGGSLRLSCAASGSTFGYYAMGWYRQAPGKDRELVAAITRSGGSTSYADSVTGRFTISRDNAKNTVYLQMNSLKPEATAVYYCAARFYRPYYARQGYNYWGQGTKVTVSS” the “polyreactivity (PSR sort gate)” value was “high polyreactivity”.

For “QVQLVESWGGLFQAGGRLRLSSAASGFTFPRYAMGWYRHSPGKERELVAAISRGGSTNYADSVKGRFTISRDNAMNTVYLQMNSLKPEVTAVYYCNVRLEYRYYRGDYWGQGTQVTVSS”, the “polyreactivity (PSR sort gate)” value was “high polyreactivity”.

With “QVQLVESWGGLVQAGGSHRLSCSASGTILGDYGMGWYRQAPGKEREMVGAITWNGDSTYYADSVKGRFTISRDNAKNTVYLQMNSLKPEDTAVYYCAADLKDYKYYPWYGYWGQGTQVTVSS” the “polyreactivity (PSR sort gate)” value was “low polyreactivity”.

With “QVQLVESWGGLVQAGGSLHLSCAASGSTFQEYAMGWYRQAPGKERELVASIRWSGGRTYYADSVKGRFTISRDNAKNTVYLQMNSLKPEDTAFYYCAAGQWWYQVRFDYWGQGTQVTVSS” the “polyreactivity (PSR sort gate)” value was “low polyreactivity”.

In the case of “QVQLVESWGGLVQAGGSLRLRCAASGRTIDYNAIGWYRQAPRKEREFVADISNGGTTSYADSVKGSFTFSRDNAKNTVYLHMNSLKPEVTAVYYCATLYDWSSFANSYWYFGWEEDYWGQGTQVTVSS”, the “polyreactivity (PSR sort gate)” value was “low polyreactivity”.

In the case of “QVQLVESWGGLVQAGGSLRLSCAASGHTFREKAMGWYRQAPGKERELLAAITSSGRTYYADSVKGRFTISRDNAKNTVYLQMNRQKPEDTAVYYCAADYWYVYPRYNPGDYWGQGSQVTVSS”, the “polyreactivity (PSR sort gate)” value was “high polyreactivity”.

With “QVQLVESWGGLVQAGGSLRLSCAASGIIFVSNAMGWYRQATGKERELVATINWSDDSTYYADSVKGRFTISRDNAKNTVYLQMNSLKPEDTAVYYCAADDYAVDYSYYYNDEYDYWGQGTQVTVSS” the “polyreactivity (PSR sort gate)” value was “low polyreactivity”.

In the case of “QVQLVESWGGLVQAGGSLRLSCAASGIIRSNAMGWYRQAPGKERELVAVISSSGGRTYYADSVKGRFTISRDNAKNTVYLQMNSLKPEDTAVYYCAAQVQVGAFSYYYWGQGTQVTVSS”, the “polyreactivity (PSR sort gate)” value was “high polyreactivity”.

For “QVQLVESWGGLVQAGGSLRLSCAASGITFTVYAMGWYRQPPGKERELVAAITRGTSTYADSVKGRFTISRDNAKNTVYLQMNSLKPEDTAVYYCAARSSPWYTRYRSSELFDYWGQGTQVTVSS”, the “polyreactivity (PSR sort gate)” value was “high polyreactivity”.

With “QVQLVESWGGLVQAGGSLRLSCAASGLIFNYYAMGWYRQAPGKERELVAAITTGGGTYYADSVKGRFTISRDNAKNTVYLQMNSLKPEDTAVYYCAAVWGNRSRYPGHYYWGQGTQVTVSS” the “polyreactivity (PSR sort gate)” value was “high polyreactivity”.

With “QVQLVESWGGLVQAGGSLRLSCAASGRIFANYGMGWYRQAPRKERELVAAIDRSGGTTFYADSVKGRFTISRDNAKNTVYLQMNSLKPEDTAVYYCAAALSYWYYAYYYWGQGTQVTVSS” the “polyreactivity (PSR sort gate)” value was “low polyreactivity”.

With “QVQLVESWGGLVQAGGSLRLSCAASGRIFKLYAMGWYRQAPGKERELVAGINWSGGTTYYAESVKGRFTISRDNAKNTVYLQMNSLKPEDTAVYYCAARTRNGAGYYWGQGTQVTVSS” the “polyreactivity (PSR sort gate)” value was “high polyreactivity”.

In the case of “QVQLVESWGGLVQAGGSLRLSCAASGRTFDRYDMGWYRQAPGKERELVATISSSGGSTYYADSVKGRFTISRDNAKNTVYLQMNSLKPEDTAVYYCAADPSGDYWGQGTQVTVSS”, the “polyreactivity (PSR sort gate)” value was “low polyreactivity”.

For “QVQLVESWGGLVQAGGSLRLSCAASGRTFVTNAMGRYRQAPGTERELVAAISGSGGSTYYADSVTGRFTISRDNAKNTVYLQMNSLKPEDTAVYYCATSYSLGYARYGYWGQGTQVTVSS”, the “polyreactivity (PSR sort gate)” value was “high polyreactivity”.

With “QVQLVESWGGLVQAGGSLRLSCAASGSTFFSYAMGWYRQAPGKERELVAGIEWNGGDTNYADSVKGRFTISRDNAKNTVYLQMNSRKPVDTAVYYCATDYSYPGPFRRRERFDYWGQGTQVTVSS” the “polyreactivity (PSR sort gate)” value was “low polyreactivity”.

For “QVQLVESWGGLVQAGGSLRLSCAASGSTFIGYAMGWYRQAPGKERELVAAISWSGGSTYYADSVKGRFTISRDNAKNTVYLQMNSLKPEDTAVYYCAASQYVQGHKYYYWGQGTQVTVSS”, the “polyreactivity (PSR sort gate)” value was “high polyreactivity”.

In the case of “QVQLVESWGGLVQAGGSLRLSCAASGSTFIQNAMGWYRQAPGKERELVAAITSGGGTNYADSVKGRFTISRDNAQNTVYLQMNSLKPEDTAVYYCAAEPFNYDDFWFGWEYQYEYWGQGTQVTVSS”, the “polyreactivity (PSR sort gate)” value was “low polyreactivity”.

With “QVQLVESWGGLVQAGGSLRLSCAASGSTFRGNAMGWYRQAPGTERELVAAITRRGGSTYYADSVKGRFTISRDNAKNTVYLQMNSLKPEDPAVYYCAKVGRETEYDYWGQGTQVTVSS” the “polyreactivity (PSR sort gate)” value was “high polyreactivity”.

With “QVQLVESWRGLVQAGGSLRLSCAASGNTFRWYAMGWYRQEPGKEREFVADITVRGGSTYYADSLKGRFTISRDNAKNTVYLQMNSLKPEQTAVYYCAVDFRRYPGFDYWGQGTQVTVSS” the “polyreactivity (PSR sort gate)” value was “low polyreactivity”.

In the case of “QVQLVETAGGLVQAGGSLRLSSAASGRIFPFNTMGWSRQAPGKERELVATITYRGDRTYYADSVKGRFTISRDNAKNTVYLQMNSLKPEDTGVYYCNARGTYYLGRYYWGQGTQETVSS”, the “polyreactivity (PSR sort gate)” value was “high polyreactivity”.

For “QVQLVETCGGLVHAGGSLRLSCAASGSTFVDNSMGRYRQAPGKERELGADISWSGGSTYYADSVKGRFTNSRDNAKTTVYLQMNSLKPQDTAVYYCAAYRNDYGYWTYVYYTDDYDYWGQGTQVTVSS”, the “polyreactivity (PSR sort gate)” value was “low polyreactivity”.

With “QVQLVETGAGLVQAGGSLRLSCGASGLTFARYAMGWYRQAPGKERELVAGIDSTGGTTYYADSVKGRFTISRDNAKNTVYLQMNSLKPVDTAVYYCYYWGLGTQVTVSS” the “polyreactivity (PSR sort gate)” value was “low polyreactivity”.

With “QVQLVETGGALVQAGGSLRLSCAASGFTFIDYTMGCYSQAPGKERELVARITDTGSTNYADSVKVRFTISRDNAKNTVYLQMNSLKQEDTAVYYCNKDDRNDRTIPGYDPEYDYWGQGTQVTVSS” the “polyreactivity (PSR sort gate)” value was “low polyreactivity”.

In the case of “QVQLVETGGGLFQAGGSLRLSCAASGFIYSYAMGWYRQAPGKERELDAAISRSGGSTYYADSVKGRFTISRDNAKNTVYLQMNSLKPEDTAVYYCAARPNSNRYVRYGYWGQGTQVTVSS”, the “polyreactivity (PSR sort gate)” value was “high polyreactivity”.

For “QVQLVETGGGLVHAGGSLRLSCAASGSIFDAYAMGWYRQAPGKERELFASITSGGRTNYADSVKGRFTISRDNAKNTVYLQMNSLKPEDTAVYYCAKVRTRATPGLDYYYWGQGTQVTVSS”, the “polyreactivity (PSR sort gate)” value was “high polyreactivity”.

For “QVQLVETGGGLVQAGGRLRLSCAASGITFYFNTMGWYRPAPGKERELVASISGGSSTYYADSVKGRFPISRDNAKNTVYLQMISLKREDTAVYYCNAQGSLFRGWFDYDYWGQGTQVTVSS”, the “polyreactivity (PSR sort gate)” value was “low polyreactivity”.

With “QVQLVETGGGLVQAGGSHRLSCAASGFIIPYYAKGWSRQPPGKERELLAAIDSGGSTNYADSVKGRFTISRDNAKNTVSLQMNRLIPEDTAVYYCAVPSYGVNIWGGFDEYNYWGQGTQVTVSS” the “polyreactivity (PSR sort gate)” value was “high polyreactivity”.

With “QVQLVETGGGLVQAGGSLGLSCAASGRTFGVNAMGWYRQAPGKERELVAAITRGGNTYYADSVKGRFTISRDNAKNTVYLQMNSLKPEDTAVYYCAATGWLRIDRPYTYTYGYWGQGTQVTVSS” the “polyreactivity (PSR sort gate)” value was “high polyreactivity”.

For “QVQLVETGGGLVQAGGSLRISCAASGFIFPSYAMGWYRQAPGKERELVAAITSGGRTYYADSVKGLFTISRDNAKKTVYLQMNSLKPEDYAVYYCAAKSHSKTGTRYYYCGQGTQVTVSS”, the “polyreactivity (PSR sort gate)” value was “high polyreactivity”.

In the case of “QVQLVETGGGLVQAGGSLRLCCAASGRIFWYNAMGWYRPAPGKERELVAAISSIDGTTYYADSVKGRFTISRDNAKNTVYLQMNSLKPEDTAVYYCAAEDPADQYDYWGQGTQVTVSS”, the “polyreactivity (PSR sort gate)” value was “high polyreactivity”.

In the case of “QVQLVETGGGLVQAGGSLRLSCAASASIFTANAMGWYRQAPGKERELVAAISRSGGRTYYADSVKGRFTISRDNAKNTVYLQMNSLKPEDTAVYYCAAVYVYPSTSRYDFWGQGTQVTVSS”, the “polyreactivity (PSR sort gate)” value was “high polyreactivity”.

In the case of “QVQLVETGGGLVQAGGSLRLSCAASGFIFGYNARGWYRKAPGQVRELVAAISSGGRTYYADSVKGRFTISRDNAKHTVYLQMNSLKPQDTAVYYCSVDPHLYALRGAVYYWGQGTQVTVSS”, the “polyreactivity (PSR sort gate)” value was “low polyreactivity”.

For “QVQLVETGGGLVQAGGSLRLSCAASGFNFGPYDIGWYIQAPGKERELVAAITDSSGSTHYADSVKGRFTISRDNAKNTVYLQMNSLKPEDTAVYYWAADDSSRTTYDYWGQGTQVTVSS”, the “polyreactivity (PSR sort gate)” value was “low polyreactivity”.

In the case of “QVQLVETGGGLVQAGGSLRLSCAASGFTFDVYVMGWYRLAPGKERELVAAISWSGDSTYYADSVKGRFTISRDNAKNTVYLQMNSLKPADCAFSFCAAVGYTSRRPVVRYYYWGQGTQVTVSS”, the “polyreactivity (PSR sort gate)” value was “high polyreactivity”.

In the case of “QVQLVETGGGLVQAGGSLRLSCAASGFTFYNNAMGWYGQAPGKERELGAVITSNGGRTYYADSVKGRFTISRDNAKNTVYLQMNSLKPEDTAVYYCAKDYKAMYLYHYRISGGDVDYWGQGTQVTVSS”, the “polyreactivity (PSR sort gate)” value was “low polyreactivity”.

For “QVQLVETGGGLVQAGGSLRLSCAASGGIFVTYAMGWYRQAPGKERELVAAITSGDSTYYADSVKGRFTISRDNAKNTVYLQMNSLKAEDTGVYYCAVGSTDRVSAQGSYFTYDYWGQGTQVTVSS”, the “polyreactivity (PSR sort gate)” value was “low polyreactivity”.
